The record followed here is patent US20030208060A1 (published 2003).

First the molecules themselves.
B1: MBP200 (membrane binding protein of ~200 kDa; human monocyte-macrophage apoB48 receptor, apoB48R) (receptor)
chain: MDFLRLYLPGLHQALRGALDSLGTFVSYLLGDAVPTVEREAQAAEELGVVAVGKTGKIVEEEAQEDLEGLRGSQNEGAGRLRGPGDDRRHEVGSSAVEQTWGWGDGSSHGSQAERQDSGAGETAKAARCQEPSAHLEARKKSKAGSGACQDRSGQAQERQESHEQEVNREERLRSWEQEEEEEEVRAREPGMARGAESEWTWHGETEGKAGAVGPKAAGDNREMEQGVREADAGETEEPGAEGAGKGEEVVVVEKACESTRAWGTWGPGAEPEDWGILGREEARTTPGREEARAILDGEEARTISGGEEAETASGGEEAETASGGEEAGTASGGEEAGISSGGEAGTASGGEEAGTASGGDEAWTTSGKEEADLLGVRQTQYGAVPGERLLEATGKVWVLEEEGDEEREAEVSPFPKQAQVLGTERTEEAAESQTAGREAVGGQEAGESFEGQVDLRGKEAEMRQDLGIRADRAKMEELVQAEEAQEERGSSRDPVAELPSDGEAEGTADLEATPEARPEEELTGEESEAAQTSCGLLGVEWGGLTHSVTKGQGPELMGGAQTPTKQPEEREAGEVELMGVLALSKEEQERSLEAGPRHAGSVKPEASEAFPGAWENRTRKDMERGNTQEDAADGEQREEEETAGGQTLAAEAEGDRESELSEVPEAGGEGLTTQDAGCGTEEGEASVSENQELDGSTGADAGPCPSLGEAYARETEDEEAEADRTSRRGWRLQAVAVGLPDREDAQTGSVAAGIMGGDVVPHISAAGAGEALEGALGQGWDSKEKEEAAAGEHAGGQEFGLEGSAEEEVTGRGSQVEAFESREGGPWGGRVEAEESAGAEDSCGLDPAGSQTARAEGMGAMVEAGGLLEKWTLLEEEAVGWQEREQREDSEGRCGDYHPEGEAPRLLDAEGLMVTGGRRAEAKETEPESLEHVRGQEEQPTHQAPAEAAPESVGEAETAEAMGSARGGAANSWSEAPLPGSLLDVSVPRSRVHLSRSSSQRRSRPSFRRTPAWEQQEEPPAPNPPEEELSAPEQRPLQLEEPLEPSPLRHDGTPVPARRRPLGHGFGLAHPGMMQELQARLGRPKPQ
notes: Native protein in Triton X-114 aqueous-phase extracts of THP-1 monocytes, run on non-reducing SDS-PAGE and blotted to nitrocellulose; Apparent Mr ~200 kD against ~114.8 kD deduced; also called TGRLP receptor; TGRLP/ApoB receptor

In series [1] the target is T1, normal VLDL Sf100-400 from a subject with normal plasma TG levels (human, UniProt P04114 28-4563).
T1 construct: Lipoprotein particle; also called N-V1; normal very low density lipoprotein
T1 sequence (P04114 28-4563 limits assumed): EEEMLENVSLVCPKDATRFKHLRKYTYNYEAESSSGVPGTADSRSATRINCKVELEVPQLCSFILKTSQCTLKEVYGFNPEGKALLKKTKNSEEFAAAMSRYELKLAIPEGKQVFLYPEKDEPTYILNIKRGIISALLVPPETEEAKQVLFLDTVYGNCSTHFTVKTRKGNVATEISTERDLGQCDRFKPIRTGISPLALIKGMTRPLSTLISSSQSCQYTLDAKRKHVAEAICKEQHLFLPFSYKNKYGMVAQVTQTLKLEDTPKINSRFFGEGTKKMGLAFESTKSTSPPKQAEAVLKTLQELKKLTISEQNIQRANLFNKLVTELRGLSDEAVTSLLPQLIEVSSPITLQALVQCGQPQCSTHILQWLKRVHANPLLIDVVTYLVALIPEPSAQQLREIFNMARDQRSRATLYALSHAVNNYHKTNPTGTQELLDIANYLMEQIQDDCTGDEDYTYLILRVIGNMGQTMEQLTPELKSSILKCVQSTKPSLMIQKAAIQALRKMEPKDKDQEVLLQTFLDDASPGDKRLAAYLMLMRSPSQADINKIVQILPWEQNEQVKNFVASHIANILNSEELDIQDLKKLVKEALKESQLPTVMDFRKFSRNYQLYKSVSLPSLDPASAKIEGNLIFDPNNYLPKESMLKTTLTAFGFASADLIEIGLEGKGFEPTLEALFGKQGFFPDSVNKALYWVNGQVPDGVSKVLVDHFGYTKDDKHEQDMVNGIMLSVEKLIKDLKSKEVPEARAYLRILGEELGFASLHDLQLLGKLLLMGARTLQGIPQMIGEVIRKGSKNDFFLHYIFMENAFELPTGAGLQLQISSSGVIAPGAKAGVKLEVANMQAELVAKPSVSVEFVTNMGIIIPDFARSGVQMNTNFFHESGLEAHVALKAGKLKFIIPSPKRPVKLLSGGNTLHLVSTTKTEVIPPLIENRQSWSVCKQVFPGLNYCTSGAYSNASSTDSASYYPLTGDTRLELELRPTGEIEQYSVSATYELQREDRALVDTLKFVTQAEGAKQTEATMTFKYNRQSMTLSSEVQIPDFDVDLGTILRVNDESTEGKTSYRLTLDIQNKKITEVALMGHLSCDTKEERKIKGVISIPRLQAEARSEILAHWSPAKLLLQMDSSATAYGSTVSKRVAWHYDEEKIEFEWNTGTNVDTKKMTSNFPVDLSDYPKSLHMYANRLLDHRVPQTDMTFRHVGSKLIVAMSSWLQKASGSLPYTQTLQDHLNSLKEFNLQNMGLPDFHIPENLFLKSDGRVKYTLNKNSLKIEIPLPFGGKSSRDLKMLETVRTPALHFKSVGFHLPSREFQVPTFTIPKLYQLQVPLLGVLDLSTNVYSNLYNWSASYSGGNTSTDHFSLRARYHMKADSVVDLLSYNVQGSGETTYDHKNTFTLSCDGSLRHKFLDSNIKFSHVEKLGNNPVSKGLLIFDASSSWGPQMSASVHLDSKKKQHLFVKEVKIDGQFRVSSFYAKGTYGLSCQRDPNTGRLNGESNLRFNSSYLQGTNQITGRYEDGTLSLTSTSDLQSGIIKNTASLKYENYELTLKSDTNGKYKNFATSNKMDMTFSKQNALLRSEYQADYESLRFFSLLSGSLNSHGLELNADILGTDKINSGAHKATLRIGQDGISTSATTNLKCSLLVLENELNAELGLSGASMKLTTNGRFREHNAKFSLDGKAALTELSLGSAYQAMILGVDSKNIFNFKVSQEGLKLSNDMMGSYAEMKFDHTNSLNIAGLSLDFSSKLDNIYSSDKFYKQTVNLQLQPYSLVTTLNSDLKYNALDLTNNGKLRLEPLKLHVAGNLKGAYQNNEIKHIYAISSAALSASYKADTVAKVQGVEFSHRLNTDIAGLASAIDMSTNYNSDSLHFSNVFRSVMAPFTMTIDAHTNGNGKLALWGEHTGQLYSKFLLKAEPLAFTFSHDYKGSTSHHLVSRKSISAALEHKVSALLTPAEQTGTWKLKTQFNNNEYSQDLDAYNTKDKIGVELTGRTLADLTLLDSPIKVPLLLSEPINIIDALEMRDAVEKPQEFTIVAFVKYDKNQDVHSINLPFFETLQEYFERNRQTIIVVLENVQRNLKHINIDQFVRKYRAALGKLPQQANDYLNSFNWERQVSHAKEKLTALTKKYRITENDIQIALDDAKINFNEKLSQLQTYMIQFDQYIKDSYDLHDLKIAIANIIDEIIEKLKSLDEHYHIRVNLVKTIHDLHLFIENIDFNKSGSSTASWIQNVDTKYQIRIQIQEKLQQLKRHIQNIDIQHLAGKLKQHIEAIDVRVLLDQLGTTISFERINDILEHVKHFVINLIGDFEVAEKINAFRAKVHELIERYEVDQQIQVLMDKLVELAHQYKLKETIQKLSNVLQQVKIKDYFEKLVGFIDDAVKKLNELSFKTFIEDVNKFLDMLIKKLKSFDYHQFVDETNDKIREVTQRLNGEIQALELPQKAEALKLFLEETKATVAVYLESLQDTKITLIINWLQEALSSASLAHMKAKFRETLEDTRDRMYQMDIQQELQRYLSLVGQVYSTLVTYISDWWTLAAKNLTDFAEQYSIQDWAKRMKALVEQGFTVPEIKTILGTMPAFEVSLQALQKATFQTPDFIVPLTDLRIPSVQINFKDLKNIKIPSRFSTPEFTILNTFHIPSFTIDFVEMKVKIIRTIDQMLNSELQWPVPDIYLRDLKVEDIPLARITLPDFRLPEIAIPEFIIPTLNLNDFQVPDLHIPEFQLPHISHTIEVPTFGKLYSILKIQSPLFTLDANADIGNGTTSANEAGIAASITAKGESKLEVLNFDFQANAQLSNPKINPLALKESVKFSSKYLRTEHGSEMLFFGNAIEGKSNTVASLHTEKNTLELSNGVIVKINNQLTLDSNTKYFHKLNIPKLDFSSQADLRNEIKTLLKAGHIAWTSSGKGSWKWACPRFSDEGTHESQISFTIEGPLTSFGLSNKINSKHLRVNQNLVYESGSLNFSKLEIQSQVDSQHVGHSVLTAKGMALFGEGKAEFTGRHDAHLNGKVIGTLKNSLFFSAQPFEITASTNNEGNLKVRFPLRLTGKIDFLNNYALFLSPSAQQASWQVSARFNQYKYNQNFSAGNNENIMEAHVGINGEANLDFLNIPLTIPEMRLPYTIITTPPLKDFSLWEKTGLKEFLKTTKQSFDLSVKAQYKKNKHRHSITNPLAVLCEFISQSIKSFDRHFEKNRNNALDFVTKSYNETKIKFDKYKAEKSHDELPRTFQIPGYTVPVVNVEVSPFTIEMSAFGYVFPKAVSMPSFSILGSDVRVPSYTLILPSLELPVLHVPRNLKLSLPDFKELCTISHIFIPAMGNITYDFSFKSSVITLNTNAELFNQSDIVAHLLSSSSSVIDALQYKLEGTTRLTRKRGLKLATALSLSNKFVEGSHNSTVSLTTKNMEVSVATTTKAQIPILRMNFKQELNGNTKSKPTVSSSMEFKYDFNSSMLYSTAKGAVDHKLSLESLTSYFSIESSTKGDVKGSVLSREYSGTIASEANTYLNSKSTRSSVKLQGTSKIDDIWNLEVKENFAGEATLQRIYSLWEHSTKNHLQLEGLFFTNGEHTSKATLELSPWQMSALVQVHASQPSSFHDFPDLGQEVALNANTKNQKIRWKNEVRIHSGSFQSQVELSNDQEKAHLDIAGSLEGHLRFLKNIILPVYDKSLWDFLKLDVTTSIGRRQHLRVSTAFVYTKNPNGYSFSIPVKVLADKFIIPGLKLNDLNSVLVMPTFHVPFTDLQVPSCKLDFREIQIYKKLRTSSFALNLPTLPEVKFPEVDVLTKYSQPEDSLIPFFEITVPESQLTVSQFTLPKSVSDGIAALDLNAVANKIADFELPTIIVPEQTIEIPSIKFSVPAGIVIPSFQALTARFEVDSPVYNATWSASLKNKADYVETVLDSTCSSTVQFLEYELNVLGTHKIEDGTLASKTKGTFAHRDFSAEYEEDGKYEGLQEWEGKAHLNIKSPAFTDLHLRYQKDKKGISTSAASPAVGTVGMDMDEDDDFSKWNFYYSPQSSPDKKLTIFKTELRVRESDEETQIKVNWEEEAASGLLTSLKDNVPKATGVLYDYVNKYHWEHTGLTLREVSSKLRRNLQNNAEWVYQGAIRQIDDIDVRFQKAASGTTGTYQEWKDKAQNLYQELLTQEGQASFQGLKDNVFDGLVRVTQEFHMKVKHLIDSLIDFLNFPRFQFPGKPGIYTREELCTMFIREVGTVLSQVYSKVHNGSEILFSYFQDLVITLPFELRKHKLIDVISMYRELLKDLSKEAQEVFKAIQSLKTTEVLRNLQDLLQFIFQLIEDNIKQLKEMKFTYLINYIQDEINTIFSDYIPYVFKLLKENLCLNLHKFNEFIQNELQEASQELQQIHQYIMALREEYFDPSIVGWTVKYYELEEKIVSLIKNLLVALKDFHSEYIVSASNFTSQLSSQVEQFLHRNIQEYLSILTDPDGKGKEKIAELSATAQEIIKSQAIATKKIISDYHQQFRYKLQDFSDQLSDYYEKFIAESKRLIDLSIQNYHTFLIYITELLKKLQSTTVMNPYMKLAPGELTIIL
Kind of series: ligand blot; the binding is of lower affinity.

Series [2] concerns the target T2, intermediate density lipoprotein (human, UniProt P04114 28-4563).
T2 construct: Lipoprotein particle; also called IDL
Kind of series: ligand blot; the binding is of lower affinity.

For series [3], the target named is T3, low density lipoprotein (LDL) (human, UniProt P04114 28-4563).
T3 construct: Lipoprotein particle
T3 sequence (P04114 28-4563 limits assumed): as above
As to the kind of experiment: ligand blot; lower affinity than HTG TGRLP and chylomicrons.

Series [4] deals with the molecule itself. As to the kind of experiment: SDS-PAGE of the purified fusion protein.
The target of series [5] is B1. As to the kind of experiment: ligand blot. The method, then: The ligand blotting assay was performed essentially as described (Gianturco et al., 1988, 1994; Ramprasad et al., 1995) with minor modifications. Aliquots of the detergent extracts were electrophoresed on 5% polyacrylamide gels containing 0.1% SDS (Laemmli, 1970) under non-reducing conditions in a Bio-Rad minigel apparatus and electrotransferred to nitrocellulose. After blocking for 1 hour with 5% Carnation nonfat dry milk in ligand buffer (50 mM Tris-HCl (pH 8), 90 mM NaCl and 2 mM CaCl₂), the blots were rinsed with 0.5% milk in ligand buffer before incubation with lipoproteins in ligand buffer containing 0.05% milk (Gianturco et al., 1988).
For competitive ligand blots, TGRLP were biotinylated as described (O'Shannessy et al., 1984) and dialyzed extensively before use. […] After extensive washing, bound lipoprotein was detected by incubation with streptavidin linked to alkaline phosphatase, followed by substrates BCIP and NBT (Bio-Rad Laboratories, CA). In some experiments without antibodies as potential competitors, native, unlabeled TGRLP were used as the ligand, and bound TGRLP was detected with anti-apoB followed by alkaline phosphatase-linked secondary antibody. […]

Series [6] deals with the molecule itself. As to the kind of experiment: SDS-PAGE of the purified GST fusion protein.

T2 sequence (P04114 28-4563 limits assumed): as above

Take B1: the binding result in series [1], in series [2] and in series [3] was “binds” each time.

B2: glutathione-S-transferase (GST)-fusion protein containing apoB48R amino acid 223 to 710 (other)
chain: EMEQGVREADAGETEEPGAEGAGKGEEVVVVEKACESTRAWGTWGPGAEPEDWGILGREEARTTPGREEARAILDGEEARTISGGEEAETASGGEEAETASGGEEAGTASGGEEAGISSGGEAGTASGGEEAGTASGGDEAWTTSGKEEADLLGVRQTQYGAVPGERLLEATGKVWVLEEEGDEEREAEVSPFPKQAQVLGTERTEEAAESQTAGREAVGGQEAGESFEGQVDLRGKEAEMRQDLGIRADRAKMEELVQAEEAQEERGSSRDPVAELPSDGEAEGTADLEATPEARPEEELTGEESEAAQTSCGLLGVEWGGLTHSVTKGQGPELMGGAQTPTKQPEEREAGEVELMGVLALSKEEQERSLEAGPRHAGSVKPEASEAFPGAWENRTRKDMERGNTQEDAADGEQREEEETAGGQTLAAEAEGDRESELSEVPEAGGEGLTTQDAGCGTEEGEASVSENQELDGSTGADAGPCPSLGE
notes: Migrates as a dimer on SDS-PAGE; also called apoB48R-GST fusion protein (aa 223-710); not shown: glutathione-S-transferase of the pGEX-5X-3 vector (Pharmacia)
As for B2, in series [4], the binding result is “binds”.

B3: human receptor-associated protein (RAP) (other, UniProt P30533 35-357, looked up)
chain: YSREKNQPKPSPKRESGEEFRMEKLNQLWEKAQRLHLPPVRLAELHADLKIQERDELAWKKLKLDGLDEDGEKEARLIRNLNVILAKYGLDGKKDARQVTSNSLSGTQEDGLDDPRLEKLWHKAKTSGKFSGEELDKLWREFLHHKEKVHEYNVLLETLSRTEEIHENVISPSDLSDIKGSVLHSRHTELKEKLRSINQGLDRLRRVSHQGYSTEAEFEEPRVIDLWDLAQSANLTDKELEAFREELKHFEAKIEKHNHYQKQLEIAHEKLRHAESVGDGERVSRSREKHALLEGRTKELGYTVKKHLQDLSGRISRARHNEL
B3: the binding result in series [5] is reported as “no binding”.

B4: GST fusion protein containing apoB48R amino acid 629-1088 (other)
chain: QEDAADGEQREEEETAGGQTLAAEAEGDRESELSEVPEAGGEGLTTQDAGCGTEEGEASVSENQELDGSTGADAGPCPSLGEAYARETEDEEAEADRTSRRGWRLQAVAVGLPDREDAQTGSVAAGIMGGDVVPHISAAGAGEALEGALGQGWDSKEKEEAAAGEHAGGQEFGLEGSAEEEVTGRGSQVEAFESREGGPWGGRVEAEESAGAEDSCGLDPAGSQTARAEGMGAMVEAGGLLEKWTLLEEEAVGWQEREQREDSEGRCGDYHPEGEAPRLLDAEGLMVTGGRRAEAKETEPESLEHVRGQEEQPTHQAPAEAAPESVGEAETAEAMGSARGGAANSWSEAPLPGSLLDVSVPRSRVHLSRSSSQRRSRPSFRRTPAWEQQEEPPAPNPPEEELSAPEQRPLQLEEPLEPSPLRHDGTPVPARRRPLGHGFGLAHPGMMQELQARLGRPKPQ
notes: not shown: glutathione-S-transferase of the pGEX-5X-3 vector (Pharmacia)
Take B4: the binding result in series [6] is “no binding”.

B5: GST fusion protein containing apoB48R amino acid 714-917 (other)
chain: RETEDEEAEADRTSRRGWRLQAVAVGLPDREDAQTGSVAAGIMGGDVVPHISAAGAGEALEGALGQGWDSKEKEEAAAGEHAGGQEFGLEGSAEEEVTGRGSQVEAFESREGGPWGGRVEAEESAGAEDSCGLDPAGSQTARAEGMGAMVEAGGLLEKWTLLEEEAVGWQEREQREDSEGRCGDYHPEGEAPRLLDAEGLMVTG
notes: as for B4
With B5, the binding result in series [6] was “no binding”.
